The data set deals with the molecule itself. Description: crystal structure; sitting drop vapor diffusion, 0.1 M HEPS pH 7.0, 1.4 M sodium acetate-trihydrate, 20 °C; space group P212121, four dimers per asymmetric unit; 3.1 Å.

A word on the stoichiometry N: it is a count of units in the complex or per binding partner.

B1: ChlB3 (enzyme, Streptomyces antibioticus DSM 40725)
chain: MRTPDIFIKATGRFLPETVSVEWAVEQGHYSAEDAELHELGGAAVAGDTPAPDMALWAAQQAVKRCGHRPEDLGLLLYVDSWHQGPDGWQPQYYLQRHLVGGDVLAVEIQQGCNGMFSALELAAAHLRAGPRPGSALVVAADNFGTPLFDRWTTGPGYIAGDGAGAVVLTTEPGFARLLAVRSLAVPEAEQMHRGAEPLFPPGATIGRPLNFTSRNAAFRELSLTEGLGTGALMRVHQRTLEVVEKTLSEAGITLGDITRVAYMNFSREIVEQRCMAALGLPMSASTWEFGRKLGHLGASDQVVALDELVTTGELGPGDHLLMLGMGPGVTLSCAVVKVLTPAPWSD
notes: ChlB3 acyltransferase of Streptomyces antibioticus DSM 40725, amplified from genomic DNA; chlB3 of 1044 bp cloned into pET28a (NheI/HindIII); also called KSIII (β-ketoacyl-ACP synthase)-like acyltransferase ChlB3; source: E. coli BL21 (DE3), purified (Nickel-NTA, Superdex-200 gel filtration)
Turning to B1, the “stoichiometry N” value worked out at 2.

(Values after article PMC9573744, “Structural Insight of KSIII (β-Ketoacyl-ACP Synthase)-like Acyltransferase ChlB3 in the Biosynthesis of Chlorothricin” (Molecules, 2022).)
